Experimental findings from doi:10.1101/2025.02.08.637281 (bioRxiv, 2025) are described below.

The target in assay [1] is T1, REPRESSOR OF GA1-3 (RGA), full-length, Arabidopsis thaliana DELLA protein (Arabidopsis thaliana, UniProt Q9SLH3 1-587).
T1 sequence (looked up): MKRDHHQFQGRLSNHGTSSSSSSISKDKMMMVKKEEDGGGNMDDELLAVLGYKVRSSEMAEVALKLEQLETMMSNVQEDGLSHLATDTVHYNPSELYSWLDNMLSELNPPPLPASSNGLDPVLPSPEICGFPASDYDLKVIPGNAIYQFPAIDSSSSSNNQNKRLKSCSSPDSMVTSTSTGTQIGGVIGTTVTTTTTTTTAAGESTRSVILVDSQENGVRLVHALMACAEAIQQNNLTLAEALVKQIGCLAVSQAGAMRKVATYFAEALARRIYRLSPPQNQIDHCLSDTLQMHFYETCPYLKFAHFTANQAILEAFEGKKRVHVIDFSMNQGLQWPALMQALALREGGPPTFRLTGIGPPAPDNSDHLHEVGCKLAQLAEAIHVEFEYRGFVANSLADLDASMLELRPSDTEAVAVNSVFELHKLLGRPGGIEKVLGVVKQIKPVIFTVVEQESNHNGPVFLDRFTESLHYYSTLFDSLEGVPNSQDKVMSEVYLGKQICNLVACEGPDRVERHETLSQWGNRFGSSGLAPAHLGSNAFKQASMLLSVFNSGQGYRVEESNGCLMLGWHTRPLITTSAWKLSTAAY
The assay is described as follows: SEC-MALS.

Assay [2] deals with T2, ASK2, SKP1-like protein of Arabidopsis thaliana (Arabidopsis thaliana, UniProt Q9FHW7 1-171).
T2 sequence (looked up): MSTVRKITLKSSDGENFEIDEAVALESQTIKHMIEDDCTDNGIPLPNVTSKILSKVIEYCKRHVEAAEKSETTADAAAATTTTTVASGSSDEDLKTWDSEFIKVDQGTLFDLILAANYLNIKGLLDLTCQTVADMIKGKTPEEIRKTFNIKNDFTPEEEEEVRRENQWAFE
In words: SEC. A general note: In gel filtration, larger molecules generally elute earlier.

B1: GA … DWARF1A (GID1A), gibberellin receptor, GA3-bound (receptor, Arabidopsis thaliana, UniProt Q9MAA7 1-345, looked up)
chain: MAASDEVNLIESRTVVPLNTWVLISNFKVAYNILRRPDGTFNRHLAEYLDRKVTANANPVDGVFSFDVLIDRRINLLSRVYRPAYADQEQPPSILDLEKPVDGDIVPVILFFHGGSFAHSSANSAIYDTLCRRLVGLCKCVVVSVNYRRAPENPYPCAYDDGWIALNWVNSRSWLKSKKDSKVHIFLAGDSSGGNIAHNVALRAGESGIDVLGNILLNPMFGGNERTESEKSLDGKYFVTVRDRDWYWKAFLPEGEDREHPACNPFSPRGKSLEGVSFPKSLVVVAGLDLIRDWQLAYAEGLKKAGQEVKLMHLEKATVGFYLLPNNNHFHNVMDEISAFVNAEC
For the molecule B1, the binding result in assay [1] is “binds”.

B2: SLEEPY 1 (SLY1), F-box protein (natural protein, Arabidopsis thaliana, UniProt Q9STX3 1-151, looked up)
chain: MKRSTTDSDLAGDAHNETNKKMKSTEEEEIGFSNLDENLVYEVLKHVDAKTLAMSSCVSKIWHKTAQDERLWELICTRHWTNIGCGQNQLRSVVLALGGFRRLHSLYLWPLSKPNPRARFGKDELKLTLSLLSIRYYEKMSFTKRPLPESK
Regarding B2, the binding result in assay [2] is reported as “binds”.
